Positions count from the first letter of the chain named.
B1: Nanobody 2A12 (VHH)
VHH: EVQLVESGGGLVQAGGSLRLSCAASGRTFSSYAMGWFRQAPGKERDFVAGISRSAGRTYYVDSVKGRFTISRDSAKNTVYLQMNRLKPEDTAVYYCAADLDPNRIFSRDEAAYWGQGTLVTVSS
notes: tagged as tested (anti-Flag detection, IMAC); also called 02A12
B2: Nanobody 2F03 (VHH)
VHH: B1 VHH with F29V, Q39L, D46E, G56E, V64L, Q82H, D109E, A111Y
notes: tagged as tested (anti-Flag detection, IMAC); also called 02F03; 2F3

How the values were obtained:
[1] = target: T1, recombinant human ADAMTS5 (R&D Systems cat #2198-AD) (human, UniProt Q9UNA0 262-622, limits assumed); experiment: cell-based or functional assay
T1 sequence: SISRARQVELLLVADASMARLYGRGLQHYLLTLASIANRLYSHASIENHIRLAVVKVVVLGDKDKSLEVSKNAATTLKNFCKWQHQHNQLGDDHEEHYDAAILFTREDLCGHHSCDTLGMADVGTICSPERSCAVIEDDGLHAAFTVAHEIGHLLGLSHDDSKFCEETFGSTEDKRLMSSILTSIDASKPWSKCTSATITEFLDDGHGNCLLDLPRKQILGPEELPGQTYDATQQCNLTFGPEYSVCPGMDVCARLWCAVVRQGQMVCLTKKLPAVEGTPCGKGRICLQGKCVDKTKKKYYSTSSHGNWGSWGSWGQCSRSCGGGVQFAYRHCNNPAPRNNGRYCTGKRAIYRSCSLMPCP

[2] = target: T1, recombinant human ADAMTS5 (R&D Systems …); experiment: cell-based or functional assay; remark: listed apart in the source
[3] = target: T1, recombinant human ADAMTS5 (R&D Systems …); experiment: binding ELISA, periplasmic extract on coated human ADAMTS5
Experimental: In a first step, periplasmic extracts were tested for binding to recombinant human ADAMTS5 by binding ELISA. In brief, recombinant human ADAMTS5 (R&D Systems, Minneapolis, US; cat #2198-AD) at a concentration of 1 μg/ml was coated on 384-well MaxiSorp plates (Nunc, Wiesbaden, Germany). Wells were blocked with a casein solution (1%). After addition of a 10-fold dilution of the periplasmic extracts, Nanobody binding was detected using a mouse anti-Flag-HRP conjugate (Sigma, St. Louis, US) and a subsequent enzymatic reaction in the presence of the substrate esTMB (3,3′,5,5′-tetramentylbenzidine) (SDT, Brussels, Belgium). Clones showing ELISA signals higher than the sum of the average signal of the irrelevant Nanobody controls and 3 times the standard deviation of the irrelevant Nanobody controls were considered to encode positive human ADAMTS5 binding Nanobodies.

[4] = target: T1, recombinant human ADAMTS5 (R&D Systems …); experiment: SPR off-rate, Biacore T100, ADAMTS5 immobilised, experiment 3
Experimental: (§1) Species cross-reactivity was initially evaluated via SPR-based off-rate analysis on a Biacore T100 instrument. Nanobodies were tested for binding to human, cynomolgus monkey (“cyno”), guinea pig, mouse, and bovine ADAMTS5. To this end, recombinant ADAMTS5 was immobilized onto a CM5 chip via amine coupling using EDC and NHS. Purified Nanobodies were injected for 2 minutes at a concentration of 100 nM and allowed to dissociate for 15 min at a flow rate of 45 ul/min. Off-rate for each individual Nanobody was determined by fitting a 1:1 interaction model (Langmuir model) onto the individual dissociation curves using the BIA Evaluation software. As a reference, off-rates on human ADAMTS5 were determined in each experiment.

[5] = target: T2, mouse recombinant ADAMTS5 (mouse, UniProt Q9R001 262-622, limits assumed); experiment: SPR off-rate, Biacore T100, ADAMTS5 immobilised, experiment 2
T2 construct: in house, HEK293, His tag in the entry
T2 sequence: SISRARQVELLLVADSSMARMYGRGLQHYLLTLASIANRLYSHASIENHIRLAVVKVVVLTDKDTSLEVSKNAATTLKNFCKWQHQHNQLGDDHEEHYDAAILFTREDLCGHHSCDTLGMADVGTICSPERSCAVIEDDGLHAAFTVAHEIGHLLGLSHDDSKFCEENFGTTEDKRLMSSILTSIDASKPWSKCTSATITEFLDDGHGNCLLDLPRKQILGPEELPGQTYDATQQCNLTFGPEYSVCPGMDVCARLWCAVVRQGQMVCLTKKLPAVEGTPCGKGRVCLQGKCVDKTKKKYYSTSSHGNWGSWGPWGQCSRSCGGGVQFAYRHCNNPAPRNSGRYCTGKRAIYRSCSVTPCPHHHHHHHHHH
Experimental: as §1

[6] = target: T1, recombinant human ADAMTS5 (R&D Systems …); experiment: as above
Experimental: as §1

Row | Binder | FRET assay % inh, periplasmic extract [1] [%] | FRET assay vi (U/min), periplasmic extract [1] [U/min] | AlphaLISA IC50, - HSA [2] [pM] | binding ELISA (OD 450 nm) [3] [OD 450 nm] | koff [4] [s⁻¹] | koff [5] [s⁻¹] | koff [6] [s⁻¹]
1 | B1 | 104 | -1 | 150 | 1.75 | 0.00031 | 0.00044 | 0.00023
2 | B2 | 103 | -1 | 75 | 1.84 | 9.7e-05 | 0.00029 | 6.5e-05

Source: patent US20200317802A1 (Merck KGaA, published 2020)
